Patent publication US12383631B2, “Immune antigen specific IL-18 immunocytokines and uses thereof” (Bright Peak Therapeutics AG, priority 2022, dated 2025)

How the values were obtained:
[1] = molecular target: T1, NK92 cells (Homo sapiens, UniProt O95256+Q13478); assay: IFN gamma secretion assay in NK92 cells (Example 10); type: cell-based; conditions: 1 ng/ml IL-12, 16-20 h, read-out: EC50 IFNγ secretion NK92 assay
T1 sequence (Q13478 19-541): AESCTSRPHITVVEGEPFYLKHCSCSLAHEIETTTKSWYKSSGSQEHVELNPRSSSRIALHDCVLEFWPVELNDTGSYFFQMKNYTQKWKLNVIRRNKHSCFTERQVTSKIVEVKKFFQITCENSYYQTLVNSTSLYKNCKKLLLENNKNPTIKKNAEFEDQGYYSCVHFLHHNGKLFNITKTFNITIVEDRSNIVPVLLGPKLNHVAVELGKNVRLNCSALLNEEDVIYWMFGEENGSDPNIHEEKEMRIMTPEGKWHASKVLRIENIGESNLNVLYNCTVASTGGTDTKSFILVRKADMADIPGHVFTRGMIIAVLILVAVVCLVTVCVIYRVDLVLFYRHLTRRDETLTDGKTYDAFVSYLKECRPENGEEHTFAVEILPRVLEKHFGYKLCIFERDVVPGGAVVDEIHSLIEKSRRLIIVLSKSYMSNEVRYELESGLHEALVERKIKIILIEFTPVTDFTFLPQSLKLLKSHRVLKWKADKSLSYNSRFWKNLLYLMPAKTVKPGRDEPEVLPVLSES
T1 sequence (O95256 20-599): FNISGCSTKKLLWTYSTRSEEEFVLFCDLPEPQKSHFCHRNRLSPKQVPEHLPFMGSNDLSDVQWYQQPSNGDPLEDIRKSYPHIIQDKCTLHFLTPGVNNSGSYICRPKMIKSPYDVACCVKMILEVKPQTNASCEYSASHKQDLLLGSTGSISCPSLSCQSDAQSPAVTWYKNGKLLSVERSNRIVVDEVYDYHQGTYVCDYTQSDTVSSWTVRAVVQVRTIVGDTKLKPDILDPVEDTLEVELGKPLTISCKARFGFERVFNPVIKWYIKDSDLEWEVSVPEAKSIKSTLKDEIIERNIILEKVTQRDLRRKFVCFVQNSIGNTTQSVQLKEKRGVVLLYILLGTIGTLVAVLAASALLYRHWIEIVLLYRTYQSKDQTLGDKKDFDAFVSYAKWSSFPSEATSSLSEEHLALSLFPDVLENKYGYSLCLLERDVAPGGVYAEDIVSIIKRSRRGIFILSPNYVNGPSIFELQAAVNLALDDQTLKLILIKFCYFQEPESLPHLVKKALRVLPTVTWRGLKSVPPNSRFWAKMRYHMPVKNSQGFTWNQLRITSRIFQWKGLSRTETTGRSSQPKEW
Description: The IFNγ-secretion stimulating activity of the unconjugated IL-18 variants and corresponding IL-18 immunocytokines was evaluated on NK92 cell line. The NIK cell line NK-92 derived from a patient with lymphoma (ATCC, Cat #CRL-2407) was cultured in aMIEM medium supplemented with 12.5% FCS, 12.5% horse serum (HS), 50 uM B-mercaptoEthanol, and 2 ng/ml of recombinant Human Interleukin-2 (IL-2).
On the day of experiment, cells were harvested and washed with aNMEM medium without IL-2 and resuspended in medium (w/o IL-2) containing 1 ng/ml of recombinant human Interleukin-12 (Sinofliologicals, Cat #CT011-H08H). After counting, cells were seeded at 100 000 cells/well in a 384 well titer plate and incubated at 37° C./5% CO2. […]
After 16-20 h incubation at 37° C./5% CO2, 5 μl of supernatant were carefully transferred to a 384 microwells OPTIPlate (Perkin Elmer; Cat #6007270) and Interferon-gamma (IFNγ) levels measured using the Human IFNγ AlphaLISA Assay Kit (Perkin Elmer, Cat #AL217C). […] AlphaLisa signal was then measured on an Enspire plate reader (Perkin Elmer) using 680 and 615 nm as excitation and emission wavelengths respectively. Half maximal effective concentration (EC50) was calculated based on a variable slope, four parameter analysis using GraphPad PRISM software.

[2] = molecular target: His-tagged human PD1 (Homo sapiens, UniProt Q15116); assay: Bio-Layer Interferometry (BLI) binding kinetics to PD-1 (Example 6); conditions: AHC sensors, analyte His-tagged human PD1
Chain of His-tagged human PD1 (Q15116 25-288): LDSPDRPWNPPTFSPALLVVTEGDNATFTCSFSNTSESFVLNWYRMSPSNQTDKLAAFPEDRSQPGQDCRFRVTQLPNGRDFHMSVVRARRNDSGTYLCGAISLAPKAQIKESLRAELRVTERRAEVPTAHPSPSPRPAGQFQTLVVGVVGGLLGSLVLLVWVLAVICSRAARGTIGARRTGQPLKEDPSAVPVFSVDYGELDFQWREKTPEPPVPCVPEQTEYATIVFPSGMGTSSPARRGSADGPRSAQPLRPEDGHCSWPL
Excerpt: Based on Bio-Layer Interferometry (BLI), Octet® BLI systems enable real-time, label-free analysis for the determination of kinetics and affinity of a ligands to its receptor. Here anti-human IgG FC Capture (AHC) sensors are loaded with the test items (ICs). Sensors are first dipped into a kinetic buffer for baseline measurement, then into an analyte solution, here human PD1, to allow association and again into a buffer solution where the analyte is allowed to come off the ligand (dissociation). Several concentrations of analyte are run in parallel and enable the calculation of affinity parameters: Ka, Kd, KD.
Typically, first, the sensors are regenerated by 3 cycles of dipping into 10 mM glycine solution at pH=2 for 20 seconds, followed by 20 second kinetics buffer and a final 60 seconds in kinetics buffer to establish the initial signal (baseline). Second, the loading column will contain the ligand, here the unmodified PD-1 antibodies and of IL-18 polypeptide conjugated PD-1 antibody, at a fixed concentration determined in the loading scout experiment (20 ug/mL). Then another wash/baseline step allows non immobilized proteins to be washed away. […] After acquisition, the data is analyzed with Data Analysis Studio software (Sartorius). […] Group fitting is then applied to the data series and kinetics parameters are calculated.

| EC50 [1] | ka [2] | kd [2] | Substance |
| --- | --- | --- | --- |
| 1 pM | – | – | Composition B: immunocytokine: Atezolizumab/Tecentriq (anti-PD-L1) conjugated to IL-18 polypeptide SEQ ID NO: 30 |
| – | 342000 M⁻¹ s⁻¹ | 0.0077 s⁻¹ | LZM-009: anti-PD-1 antibody (VH SEQ ID NO: 376, VL SEQ ID NO: 377), unconjugated reference antibody [reference compound] |
